According to article PMC3206940 (PLoS ONE, 2011):

B1: SARS-CoV 3C-like protease (3CL^pro) (enzyme)
chain: SGFRKMAFPSGKVEGCMVQVTCGTTTLNGLWLDDTVYCPRHVICTAEDMLNPNYEDLLIRKSNHSFLVQAGNVQLRVIGHSMQNCLLRLKVDTSNPKTPKYKFVRIQPGQTFSVLACYNGSPSGVYQCAMRPNHTIKGSFLNGSCGSVGFNIDYDCVSFCYMHHMELPTGVHAGTDLEGKFYGPFVDRQTAQAAGTDTTITLNVLAWLYAAVINGDRWFLNRFTTTLNDFNLVAMKYNYEPLTQDHVDILGPLSAQTGIAVLDMCAALKELLQNGMNGRTILGSTILEDEFTPFDVVRQCSGVTFQ
notes: also called 3CL^pro from SARS-CoV; main protease
B2: HCoV-OC43 3C-like protease (3CL^pro) (enzyme)
chain: SGIVKMVNPTSKVEPCVVSVTYGNMTLNGLWLDDKVYCPRHVICSASDMTNPDYTNLLCRVTSSDFTVLFDRLSLTVMSYQMRGCMLVLTVTLQNSRTPKYTFGVVKPGETFTVLAAYNGKPQGAFHVTMRSSYTIKGSFLCGSCGSVGYVIMGDCVKFVYMHQLELSTGCHTGTDFNGDFYGPYKDAQVVQLPIQDYIQSVNFLAWLYAAILNNCNWFIQSDKCSVEDFNVWALSNGFSQVKSDLVIDALASMTGVSLETLLAAIKRLKNGFQGRQIMGSCSFEDELTPSDVYQQLAGIKLQ
notes: also called 3CL^pro from HCoV-OC43; main protease; not shown: His6-SUMO or His6-MBP, N-terminal, cleaved

Target: the molecule itself
Assay: SEC

| Protein | stoichiometry N |
| --- | --- |
| B1 | 2 |
| B2 | 2 |
